Experimental findings from PMC11374337 (2024) are described below.

What is called Kd is the free concentration of one partner at which half of the binding sites on the other are occupied at equilibrium, for simple one-to-one binding. Read a high Kd as a looser complex.

Assay [1] deals with paxillin LIM2/3 tandem domain (aa380-499) (human) (UniProt P49023). In words: NMR titration; 1H-15N HSQC, 250-300 μM 15N-labelled paxillin LIM2/3 (wt or 4A), unlabelled integrin β3 tail added; 298 K, 50 mM Na2HPO4, 150 mM NaCl, 0.1 mM ZnSO4, 1 mM DTT, 5% D2O, pH 7.5; global fit of CSPs.
The target in assay [2] is cytoplasmic tail of human integrin β1 (aa758-798) (human) (UniProt P05556). In words: NMR titration; 1H-15N HSQC, 300 μM 15N-labelled integrin β tail, unlabelled paxillin LIM2/3 added; 298 K, 50 mM Na2HPO4, 150 mM NaCl, 0.1 mM ZnSO4, 1 mM DTT, 5% D2O, pH 6.2; global fit of CSPs to a one site binding model.
Assay [3] has as its target cytoplasmic tail of human integrin β3 (aa748-788) (human) (UniProt P05106). The description is as above.
The next assay has as its target T1, ITGB1 (Homo sapiens (Human), UniProt P05556).
T1 chain: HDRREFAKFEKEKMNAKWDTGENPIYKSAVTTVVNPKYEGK
As to the kind of experiment: NMR.

Another assay has as its target T2, ITGB3 (Homo sapiens (Human), UniProt P05106).
T2 chain: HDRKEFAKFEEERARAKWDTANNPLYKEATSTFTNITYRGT
In words: NMR.

In assay [1], “cytoplasmic tail of human integrin β3 (aa748-788) (from UniProt P05106 748-788) (domain or fragment)” gave a Kd of 532 µM.
Take “paxillin LIM2/3 tandem domain (aa380-499) (from UniProt P49023-2 380-499) (domain or fragment)”: in assay [2], the Kd came to 52 µM. In assay [3], this molecule yielded a Kd of 528 µM and a fraction bound at the end of the titration of 70%.

B1: paxillin (protein)
chain: SPRCYYCNGPILDKVVTALDRTWHPEHFFCAQCGAFFGPEGFHEKDGKAYCRKDYFDMFAPKCGGCARAILENYISALNTLWHPECFVCRECFTPFVNGSFFEHDGQPYCEVHYHERRGS
Turning to B1, the Kd amounted to 52 µM with ITGB1 and 528 µM with ITGB3.
